Patent US9163032B2, “Esters of DCPLA and methods of treatment using the same” (Blanchette Rockefeller Neurosciences Institute, priority 2011, dated 2015)
“Also recorded” adds a separate entry of the source.

Experiments:
PKC-δ = PKC-δ (Homo sapiens, UniProt Q05655); assay: PKC activation assay with purified PKC-δ isozyme; format: biochemical
Protocol: (§1) For measurement of PKC activation by DCPLA-ME, activation of recombinant PKC-α, PKC-ε, and PKC-δ was evaluated. DCPLA-ME induced activation was measured in the absence of diacylglycerol (DAG) and phosphatidylserine (PS) as described earlier. See Nelson, T. J. et al., J. Biol. Chem., 2009, 284: 34514-34521, and Kanno, T. et al., J. Cell Physiol., 2009, 221: 183-188. Individual enzymes were incubated for 15 min at 37° C. in the presence of 10 μM histones, 4.89 mM CaCl2, 10 mM MgCl2, 20 mM HEPES (pH 7.4), 0.8 mM EDTA, 4 mM EGTA, 4% glycerol, 8 μg/ml aprotinin, 8 μg/ml leupeptin, 2 mM benzamidine, and 0.5 μCi of [γ-^32P]ATP. Purified PKC-α, PKC-ε and PKC-δ were preincubated with DCPLA-ME for 5 min at room temperature. [^32P]-Phosphoprotein formation was measured by adsorption onto phosphocellulose.
(§2) To measure PKC, 10 μl of cell homogenate or purified PKC isozyme was incubated for 15 min at 37° C. in the presence of 10 μM histones, 4.89 mM CaCl2, 1.2 μg/μl phosphatidyl-L-serine, 0.18 μg/μl 1,2-dioctanoyl-sn-glycerol, 10 mM MgCl2, 20 mM HEPES (pH 7.4), 0.8 mM EDTA, 4 mM EGTA, 4% glycerol, 8 μg/ml aprotinin, 8 μg/ml leupeptin, and 2 mM benzamidine. [γ32P]ATP (0.5 μCi) was added and 32P-phosphoprotein formation was measured by adsorption onto phosphocellulose as described previously. See Nelson et al., J. Neurochemistry, 1995, 65: 2350-2357. […]

PKC-α = PKC-α (Homo sapiens, UniProt P17252); assay: PKC activation assay with purified PKC-α isozyme; format: biochemical
Protocol: as §1
as §2, with “previously.” for “previously. See Nelson et al., J. Neurochemistry, 1995, 65: 2350-2357.”
PKC activity of each compound was measured in the absence of diacylglycerol and phosphatidyl-L-serine and PKC-δ and PKC-ε were measured in the absence of added EGTA and CaCl2, as described by Kanno et al., J. Lipid Res., 2006, 47: 1146-1156. […] To determine their PKC isozyme specificity, the compounds were pre-incubated with purified isoforms of PKC for five minutes and the PKC activity was measured radiometrically.
The activation and PKC isozyme specificity of DCPLA-ethyl ester was measured following the procedures in Example 1(B) and (C), except that 9 ng of the purified isozyme was used and it was pre-incubated for 5 minutes at room temperature (FIG. 3). PKC-ε activation by DCPLA-tert-butyl ester and DCPLA-retinyl ester was measured in the same manner as DCPLA-ethyl ester (FIG. 3).

[1] = system: rat primary hippocampal neurons; assay: Neurotoxic effect of Aβ1-42 oligomers, MTT viability assay; format: cell-based; details: 20 hr
Protocol: Amylospheroids (ASPDs) and Aβ monomers were prepared following Hoshi, M., et al. (2003) Proc Natl Acad Sci USA 100, 6370-6375, and Noguchi, A., et al. (2009) J Biol Chem 284, 32895-32905. Briefly, Aβ1-42 was dissolved in 1,1,1,3,3,3-hexafluoro-2-propanol and incubated overnight at 4° C. and then 3 hr at 37° C. The dissolved Aβ1-42 was then lyophilized in 1.5 ml polypropylene centrifuge tubes at 40 nmol/tube concentration. For preparing the ASPDs, the lyophilized Aβ was dissolved in phosphate buffered saline (PBS) without Ca^2+ or Mg^2+ at less than 50 μM concentration and rotated for 14 hr at 4° C. After incubation, the Aβ solution was purified using a 100 kDa molecular mass cutoff filter (Amicon Ultra, Millipore) and the high-molecular weight fraction was saved to obtain the most toxic ASPDs. Aβ derived diffusible ligands (ADDLs) were produced as previously described. See Lambert, M. P et al., Proc. Natl. Acad. Sci. USA, 1998, 95: 6448-6453. Briefly, Aβ1-42 was solubilized at 5 mM in dimethyl sulfoxide, diluted to 100 μM in F12k medium and was incubated at 4° C. for 24 hr. The solution was centrifuged at 14000×g for 10 min at 4° C. and the supernatant was used as the ADDLs.
(§3) Viability of cells was measured by MTT assay. MTT (i.e., 3-(4,5-dimethylthiazol-2-yl)-2,5-diphenyltetrazolium bromide) is a tetrazolium salt that is cleaved to formazan by the succinate dehydrogenase, which is only active in viable cells. After solubilization of the formazan, the amount of dye can be quantified with a microplate reader at 570 nm along with a reference of 630 nm. For the MTT assay, 5×10^4 primary rat hippocampal neurons from 18-day-old embryonic Sprague-Dawley rat brains or SH-SY5Y cells were plated on each well of 24-well plates coated with poly-D-lysine. After treatment, the cells were washed with 1× PBS and were incubated with 200 μl of 1 mg/ml MTT solution (Sigma, USA) at 37° C. for 2 hr. Then the MTT-solution was removed and the cells were lysed with 200 μl isopropanol containing 0.04 M HCl and […] for 10 min. Finally, the reading was taken at 570 nm and 630 nm. All the samples were done in triplicate and the data were represented as the percentage of control.
To assess the neurotoxic effect of different sized oligomers, rat primary hippocampal neurons were treated with variable concentrations of these Aβ1-42 species for 20 hr. Viability of the treated cells was compared to untreated cells using the MTT assay described above.

[2] = system: differentiated human SH-SY5Y cells; assay: Neuroprotection against ASPD, MTT assay, differentiated SH-SY5Y cells; format: cell-based; details: ASPD alone, compared to untreated cells
Protocol: For differentiation, SH-SY5Y cells were maintained in medium containing 2% serum and treated with 10 μM all-trans-retinoic acid (RA) for 72 hr. Thereafter, the cells were treated with 0.27 nM Bryostatin 1 for 72 hrs. The medium was changed every 3 days with fresh supplementation of RA.
as §3
In ASPD-treated cells, the viability was 77.15±0.49% (p<0.0001, n=6) compared to the untreated cells.

Sequence of PKC-δ (Q05655 whole entry): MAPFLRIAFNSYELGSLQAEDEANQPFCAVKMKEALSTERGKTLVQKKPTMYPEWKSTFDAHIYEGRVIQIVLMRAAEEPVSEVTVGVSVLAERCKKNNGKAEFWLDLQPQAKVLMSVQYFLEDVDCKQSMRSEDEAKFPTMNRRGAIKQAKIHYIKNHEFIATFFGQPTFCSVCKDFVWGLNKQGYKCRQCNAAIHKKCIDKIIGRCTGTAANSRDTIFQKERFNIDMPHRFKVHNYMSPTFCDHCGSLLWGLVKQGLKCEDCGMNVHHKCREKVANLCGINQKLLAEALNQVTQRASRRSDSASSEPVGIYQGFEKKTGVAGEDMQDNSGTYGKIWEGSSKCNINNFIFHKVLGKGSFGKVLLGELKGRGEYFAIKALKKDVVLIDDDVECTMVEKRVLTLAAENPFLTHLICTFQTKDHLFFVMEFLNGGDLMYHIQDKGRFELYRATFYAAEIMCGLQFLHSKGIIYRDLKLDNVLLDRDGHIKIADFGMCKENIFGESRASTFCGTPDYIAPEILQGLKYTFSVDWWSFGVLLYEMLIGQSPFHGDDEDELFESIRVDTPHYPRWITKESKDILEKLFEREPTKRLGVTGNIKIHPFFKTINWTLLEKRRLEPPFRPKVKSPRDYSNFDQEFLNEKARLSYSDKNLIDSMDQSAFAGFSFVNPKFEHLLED

Row | Compound | effect on PKC-δ (PKC-δ) | effect on PKC-α (PKC-α) | Viability of primary neuron ([1]; 0.5 nM) | Viability of primary neuron ([1]; 1 nM) | Viability of primary neuron ([1]; 2 nM) | Viability of primary neuron ([1]; 5 nM) | Viability of primary neuron ([1]; 10 nM) | Viability of primary neuron ([1]; 50 nM) | Viability of primary neuron ([1]; 50 nM, listed as ASPDs) | Viability of primary neuron ([1]; 500 nM) | viability of SH-SY5Y cells [2] [%]
1 | CCCCCC1CC1CC1CC1CCCCCCCC(=O)OC (centres unmarked) [DCPLA-ME, DCPLA methyl ester] | did not have a major effect; also recorded: less inhibitory effect | did not have a major effect | – | – | – | – | – | – | – | – | –
2 | ASPD: Amylospheroids from Aβ1-42, 100 kDa filter retentate, containing 39 monomers on average | – | – | 96.12 ± 0.733 % of control | 89.64 ± 5.99 % of control | 87.75 ± 0.94 % of control | 70.95 ± 1.89 % of control | 68.68 ± 0.84 % of control | 57.55 ± 3.35 % of control | 57.1±4.9 % of control | 52.94 ± 3.75 % of control | 77.15±0.49
